Target: the molecule itself
Assay: native MS

B1: hepatitis B virus (HBV) capsid protein Cp149 (truncated form containing only the assembly domain), dimer (domain or fragment)
chain: MDIDPYKEFGATVELLSFLPSDFFPSVRDLLDTAAALYRDALESPEHCSPHHTALRQAILCWGDLMTLATWVGTNLEDPASRDLVVSYVNTNVGLKFRQLLWFHISCLTFGRETVLEYLVSFGVWIRTPPAYRPPNAPILSTLPETTVV
stoichiometry N: ~90 dimers
